# What was measured:
# Conditions in all cases: 200 nM
# [1] = biological target: T1, Vhr2 (Saccharomyces cerevisiae) (UniProt P40041)
# T1 sequence: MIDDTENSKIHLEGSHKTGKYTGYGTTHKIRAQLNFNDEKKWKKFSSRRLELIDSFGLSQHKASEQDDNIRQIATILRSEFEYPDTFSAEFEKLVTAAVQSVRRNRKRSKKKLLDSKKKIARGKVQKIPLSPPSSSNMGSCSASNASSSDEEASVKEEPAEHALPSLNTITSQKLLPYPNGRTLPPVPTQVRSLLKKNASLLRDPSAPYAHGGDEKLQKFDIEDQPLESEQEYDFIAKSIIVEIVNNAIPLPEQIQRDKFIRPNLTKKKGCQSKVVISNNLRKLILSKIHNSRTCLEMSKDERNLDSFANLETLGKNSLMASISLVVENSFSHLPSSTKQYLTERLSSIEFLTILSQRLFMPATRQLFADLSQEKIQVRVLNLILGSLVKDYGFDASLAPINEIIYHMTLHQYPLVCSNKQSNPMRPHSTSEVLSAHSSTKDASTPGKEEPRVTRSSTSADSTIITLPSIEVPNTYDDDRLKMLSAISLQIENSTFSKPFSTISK
# [2] = biological target: T2, Ybr033w (Saccharomyces cerevisiae) (UniProt P38073)
# T2 sequence: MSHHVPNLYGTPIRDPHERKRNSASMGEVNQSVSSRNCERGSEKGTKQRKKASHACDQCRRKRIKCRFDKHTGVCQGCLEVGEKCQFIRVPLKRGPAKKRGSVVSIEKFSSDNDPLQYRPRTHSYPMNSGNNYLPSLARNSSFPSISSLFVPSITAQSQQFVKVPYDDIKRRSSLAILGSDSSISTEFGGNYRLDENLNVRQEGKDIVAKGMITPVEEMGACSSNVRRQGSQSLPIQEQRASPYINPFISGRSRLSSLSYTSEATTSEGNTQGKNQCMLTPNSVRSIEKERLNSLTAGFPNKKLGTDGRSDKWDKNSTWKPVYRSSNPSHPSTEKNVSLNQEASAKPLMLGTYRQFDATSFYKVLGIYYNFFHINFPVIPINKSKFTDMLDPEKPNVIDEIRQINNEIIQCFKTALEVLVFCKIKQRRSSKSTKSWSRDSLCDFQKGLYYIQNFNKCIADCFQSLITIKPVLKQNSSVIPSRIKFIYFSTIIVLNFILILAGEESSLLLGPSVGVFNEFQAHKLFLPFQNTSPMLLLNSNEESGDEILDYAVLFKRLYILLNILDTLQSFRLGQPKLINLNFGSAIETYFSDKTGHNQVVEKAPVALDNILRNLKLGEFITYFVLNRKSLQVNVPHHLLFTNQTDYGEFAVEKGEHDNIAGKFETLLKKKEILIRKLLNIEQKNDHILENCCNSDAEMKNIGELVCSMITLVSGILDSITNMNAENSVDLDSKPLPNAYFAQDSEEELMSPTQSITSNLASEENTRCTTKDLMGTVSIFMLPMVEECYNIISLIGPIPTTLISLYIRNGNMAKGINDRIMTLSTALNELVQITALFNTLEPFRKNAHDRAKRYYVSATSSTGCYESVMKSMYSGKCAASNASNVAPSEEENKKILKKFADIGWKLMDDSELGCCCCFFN
# [3] = biological target: T3, Vhr1 (Saccharomyces cerevisiae) (UniProt P40522)
# T3 sequence: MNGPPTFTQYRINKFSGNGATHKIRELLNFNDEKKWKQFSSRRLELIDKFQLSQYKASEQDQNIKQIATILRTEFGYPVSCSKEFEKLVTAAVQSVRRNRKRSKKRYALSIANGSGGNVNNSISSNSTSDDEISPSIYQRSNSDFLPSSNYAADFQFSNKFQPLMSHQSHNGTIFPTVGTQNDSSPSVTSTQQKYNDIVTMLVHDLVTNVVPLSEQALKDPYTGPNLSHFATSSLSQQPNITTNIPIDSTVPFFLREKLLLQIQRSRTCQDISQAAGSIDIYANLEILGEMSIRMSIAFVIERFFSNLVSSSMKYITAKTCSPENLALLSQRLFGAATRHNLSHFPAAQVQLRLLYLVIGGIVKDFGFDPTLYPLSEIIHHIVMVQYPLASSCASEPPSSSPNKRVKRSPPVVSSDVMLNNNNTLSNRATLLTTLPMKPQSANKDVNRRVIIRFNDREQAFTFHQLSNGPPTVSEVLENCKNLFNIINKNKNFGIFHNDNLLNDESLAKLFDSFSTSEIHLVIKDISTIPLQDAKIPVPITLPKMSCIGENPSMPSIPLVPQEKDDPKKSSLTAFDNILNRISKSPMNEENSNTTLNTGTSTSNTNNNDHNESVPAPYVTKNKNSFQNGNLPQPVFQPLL
# [4] = biological target: T4, Ecm22 (Saccharomyces cerevisiae) (UniProt Q05958)
# T4 sequence: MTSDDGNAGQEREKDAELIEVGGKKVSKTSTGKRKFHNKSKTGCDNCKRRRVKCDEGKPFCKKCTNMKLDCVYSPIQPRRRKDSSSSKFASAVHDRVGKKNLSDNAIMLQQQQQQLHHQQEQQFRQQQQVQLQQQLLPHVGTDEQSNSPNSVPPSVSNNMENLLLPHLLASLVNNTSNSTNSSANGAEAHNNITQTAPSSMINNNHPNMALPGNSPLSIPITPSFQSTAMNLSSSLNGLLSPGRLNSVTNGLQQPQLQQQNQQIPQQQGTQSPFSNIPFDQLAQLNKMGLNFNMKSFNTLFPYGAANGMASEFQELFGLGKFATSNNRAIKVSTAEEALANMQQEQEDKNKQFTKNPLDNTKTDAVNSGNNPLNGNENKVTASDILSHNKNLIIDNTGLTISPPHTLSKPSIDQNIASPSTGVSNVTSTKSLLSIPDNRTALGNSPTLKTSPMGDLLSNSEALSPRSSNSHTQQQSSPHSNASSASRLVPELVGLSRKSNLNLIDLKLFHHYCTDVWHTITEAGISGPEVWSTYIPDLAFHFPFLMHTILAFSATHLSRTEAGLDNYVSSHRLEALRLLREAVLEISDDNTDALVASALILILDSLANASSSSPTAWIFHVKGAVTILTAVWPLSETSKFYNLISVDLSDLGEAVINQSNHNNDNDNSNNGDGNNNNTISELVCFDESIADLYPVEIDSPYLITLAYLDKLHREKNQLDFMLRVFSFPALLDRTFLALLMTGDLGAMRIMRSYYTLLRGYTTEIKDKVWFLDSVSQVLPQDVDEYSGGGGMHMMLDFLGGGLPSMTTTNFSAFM
# [5] = biological target: T5, Upc2 (Saccharomyces cerevisiae) (UniProt Q12151)
# T5 sequence: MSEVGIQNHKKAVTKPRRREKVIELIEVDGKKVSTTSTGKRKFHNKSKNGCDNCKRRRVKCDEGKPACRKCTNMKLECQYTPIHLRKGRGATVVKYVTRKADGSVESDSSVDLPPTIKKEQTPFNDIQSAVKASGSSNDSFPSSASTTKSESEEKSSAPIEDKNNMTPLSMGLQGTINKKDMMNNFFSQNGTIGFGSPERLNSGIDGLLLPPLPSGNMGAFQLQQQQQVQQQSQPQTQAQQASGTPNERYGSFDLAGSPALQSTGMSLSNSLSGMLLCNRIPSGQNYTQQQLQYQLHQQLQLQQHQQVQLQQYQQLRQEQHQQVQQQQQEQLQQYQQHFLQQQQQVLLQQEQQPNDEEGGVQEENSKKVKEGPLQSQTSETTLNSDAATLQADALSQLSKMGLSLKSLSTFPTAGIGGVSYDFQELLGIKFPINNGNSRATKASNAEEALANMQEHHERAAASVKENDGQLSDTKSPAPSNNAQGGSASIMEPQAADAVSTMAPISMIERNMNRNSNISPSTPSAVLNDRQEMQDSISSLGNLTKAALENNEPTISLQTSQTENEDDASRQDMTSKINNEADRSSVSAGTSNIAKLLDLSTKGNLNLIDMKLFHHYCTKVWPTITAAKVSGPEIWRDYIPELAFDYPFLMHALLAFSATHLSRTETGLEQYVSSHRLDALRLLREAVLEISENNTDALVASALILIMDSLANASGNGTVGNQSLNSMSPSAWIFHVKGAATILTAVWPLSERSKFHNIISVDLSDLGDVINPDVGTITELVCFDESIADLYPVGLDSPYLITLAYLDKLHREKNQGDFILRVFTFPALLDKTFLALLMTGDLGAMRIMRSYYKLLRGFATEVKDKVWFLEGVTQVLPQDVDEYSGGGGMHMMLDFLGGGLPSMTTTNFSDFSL
sequence,measurement,setting,value
AATGACTC (double strand) [8-mer AATGACTC],binding signal (PBM E-score (-0.5 to 0.5)),[1],0.495
AATGTTCC (double strand) [8-mer AATGTTCC],binding signal (PBM E-score (-0.5 to 0.5)),[2],0.471
AATTATCC (double strand) [8-mer AATTATCC],binding signal (PBM E-score (-0.5 to 0.5)),[2],0.471
AGTGACTC (double strand) [8-mer AGTGACTC],binding signal (PBM E-score (-0.5 to 0.5)),[3],0.481
ATGACTAA (double strand) [8-mer ATGACTAA],binding signal (PBM E-score (-0.5 to 0.5)),[1],0.494
ATGACTAC (double strand) [8-mer ATGACTAC],binding signal (PBM E-score (-0.5 to 0.5)),[1],0.494
ATGACTCA (double strand) [8-mer ATGACTCA],binding signal (PBM E-score (-0.5 to 0.5)),[3],0.495
same,binding signal (PBM E-score (-0.5 to 0.5)),[1],0.499
ATGACTCC (double strand) [8-mer ATGACTCC],binding signal (PBM E-score (-0.5 to 0.5)),[3],0.494
same,binding signal (PBM E-score (-0.5 to 0.5)),[1],0.493
ATGAGTCA (double strand) [8-mer ATGAGTCA],binding signal (PBM E-score (-0.5 to 0.5)),[3],0.492
same,binding signal (PBM E-score (-0.5 to 0.5)),[1],0.498
ATTAATCC (double strand) [8-mer ATTAATCC],binding signal (PBM E-score (-0.5 to 0.5)),[2],0.486
ATTATTCC (double strand) [8-mer ATTATTCC],binding signal (PBM E-score (-0.5 to 0.5)),[2],0.479
ATTGTTCC (double strand) [8-mer ATTGTTCC],binding signal (PBM E-score (-0.5 to 0.5)),[2],0.484
ATTTATCC (double strand) [8-mer ATTTATCC],binding signal (PBM E-score (-0.5 to 0.5)),[2],0.485
ATTTTCCG (double strand) [8-mer ATTTTCCG],binding signal (PBM E-score (-0.5 to 0.5)),[2],0.472
ATTTTTCC (double strand) [8-mer ATTTTTCC],binding signal (PBM E-score (-0.5 to 0.5)),[2],0.486
CATGACTC (double strand) [8-mer CATGACTC],binding signal (PBM E-score (-0.5 to 0.5)),[3],0.485
same,binding signal (PBM E-score (-0.5 to 0.5)),[1],0.494
CGGAGTCA (double strand) [8-mer CGGAGTCA],binding signal (PBM E-score (-0.5 to 0.5)),[3],0.485
CTATACGA (double strand) [8-mer CTATACGA],binding signal (PBM E-score (-0.5 to 0.5)),[4],0.496
same,binding signal (PBM E-score (-0.5 to 0.5)),[5],0.498
CTCGTATA (double strand) [8-mer CTCGTATA],binding signal (PBM E-score (-0.5 to 0.5)),[4],0.498
same,binding signal (PBM E-score (-0.5 to 0.5)),[5],0.499
CTCGTTTA (double strand) [8-mer CTCGTTTA],binding signal (PBM E-score (-0.5 to 0.5)),[4],0.495
same,binding signal (PBM E-score (-0.5 to 0.5)),[5],0.495
CTGACTCA (double strand) [8-mer CTGACTCA],binding signal (PBM E-score (-0.5 to 0.5)),[3],0.49
same,binding signal (PBM E-score (-0.5 to 0.5)),[1],0.494
CTGAGTCA (double strand) [8-mer CTGAGTCA],binding signal (PBM E-score (-0.5 to 0.5)),[3],0.489
same,binding signal (PBM E-score (-0.5 to 0.5)),[1],0.496
GAGTCACA (double strand) [8-mer GAGTCACA],binding signal (PBM E-score (-0.5 to 0.5)),[3],0.487
GAGTCACC (double strand) [8-mer GAGTCACC],binding signal (PBM E-score (-0.5 to 0.5)),[3],0.491
same,binding signal (PBM E-score (-0.5 to 0.5)),[1],0.496
GAGTCATA (double strand) [8-mer GAGTCATA],binding signal (PBM E-score (-0.5 to 0.5)),[3],0.484
same,binding signal (PBM E-score (-0.5 to 0.5)),[1],0.495
GAGTCATC (double strand) [8-mer GAGTCATC],binding signal (PBM E-score (-0.5 to 0.5)),[3],0.492
same,binding signal (PBM E-score (-0.5 to 0.5)),[1],0.497
GATGACTA (double strand) [8-mer GATGACTA],binding signal (PBM E-score (-0.5 to 0.5)),[1],0.495
GGAGTCAC (double strand) [8-mer GGAGTCAC],binding signal (PBM E-score (-0.5 to 0.5)),[3],0.485
GTATACGA (double strand) [8-mer GTATACGA],binding signal (PBM E-score (-0.5 to 0.5)),[4],0.492
same,binding signal (PBM E-score (-0.5 to 0.5)),[5],0.495
GTCGTATA (double strand) [8-mer GTCGTATA],binding signal (PBM E-score (-0.5 to 0.5)),[4],0.497
same,binding signal (PBM E-score (-0.5 to 0.5)),[5],0.496
GTGACTCA (double strand) [8-mer GTGACTCA],binding signal (PBM E-score (-0.5 to 0.5)),[3],0.496
same,binding signal (PBM E-score (-0.5 to 0.5)),[1],0.498
GTGAGTCA (double strand) [8-mer GTGAGTCA],binding signal (PBM E-score (-0.5 to 0.5)),[3],0.494
same,binding signal (PBM E-score (-0.5 to 0.5)),[1],0.498
TATACGAA (double strand) [8-mer TATACGAA],binding signal (PBM E-score (-0.5 to 0.5)),[4],0.494
same,binding signal (PBM E-score (-0.5 to 0.5)),[5],0.495
TCGTATAA (double strand) [8-mer TCGTATAA],binding signal (PBM E-score (-0.5 to 0.5)),[4],0.498
same,binding signal (PBM E-score (-0.5 to 0.5)),[5],0.497
TCGTTTAA (double strand) [8-mer TCGTTTAA],binding signal (PBM E-score (-0.5 to 0.5)),[4],0.494
same,binding signal (PBM E-score (-0.5 to 0.5)),[5],0.497

# Source: publication PMC3334620
